Assay results as given in the supplement of paper PMC7877785.
± gives the uncertainty stated by the source.

Assay: self-splicing fitness, log relative to wild type (ln ratio); higher = more splicing; Tetrahymena group I intron in knt gene, E. coli kanamycin selection, DiMSum; sequences stand for … in CUCUCU…GGAGGGAAAAGUUAUCAGGCAUGCACCUGGUAGCUAGUCUUUAAACCAAUAGAUUGCAUCGGUUUAAAAGGCAAGACCGUCAAAUUGCGGGAAAGGGGUCAACAGCCGUUCAGUACCAAGUCUCAGGGGAAACUUUGAGAUGGCCUUGCAAAGGGUAUGGUAAUAAGCUGACGGACAUGGUCCUAACCACGCAGCCAAGUCCUAAGUCAACAGAUCUUCUGUUGAUAUGGAUGCAGUUCACAGACUAAAUGUCGGUCGGGGAAGAUGUAUUCUUCUCAUAAGAUAUAGUCGGACCUCUCCUUAAUGGGAGCUAGCGGAUGAAGUGAUGCAACACUGGAGCCGCUGGGAACUAAUUUGUAUGCGAAAGUAUAUUGAUUAGUUUUGGAGUACUCGUGGUCG
How it was run: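 Six replicate transformations of E. coli BL21(DE3) with a pET-22b(+) library were grown overnight at 37°C or 30°C. The library randomised all eight P1ex-region intron nucleotides, the intron lying in the knt kanamycin-resistance gene, and plates were LB agar with or without 25 μg/mL kanamycin plus 100 μg/mL carbenicillin, 50 μM IPTG and 0.2% rhamnose. Pooled colonies were amplicon-sequenced on an Illumina HiSeq 2500, and fitness is the DiMSum error-weighted combination of wild-type-normalised replicate fold changes, kanamycin versus none.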

Sequence: GGCUAGCAAUAUUACGGUGC
- self-splicing fitness (ln) (30 °C): -1.49 ± 0.19
- self-splicing fitness (ln) (37 °C): -0.767 ± 0.2

Sequence: UGCGAGCAAUAUUACGAGAG
- self-splicing fitness (ln) (30 °C): -2.89 ± 0.15

Sequence: CGACAGCAAUAUUACGGAUA
- self-splicing fitness (ln) (30 °C): -2.09 ± 0.14
- self-splicing fitness (ln) (37 °C): -1.91 ± 0.15

Sequence: AUUCAGCAAUAUUACGCGGC
- self-splicing fitness (ln) (30 °C): -3.26 ± 0.22
- self-splicing fitness (ln) (37 °C): -2.43 ± 0.22

Sequence: AUUUAGCAAUAUUACGGCGA
- self-splicing fitness (ln) (30 °C): -0.579 ± 0.12
- self-splicing fitness (ln) (37 °C): 0.144 ± 0.11

Sequence: AGAGAGCAAUAUUACGUCAA
- self-splicing fitness (ln) (30 °C): -2.29 ± 0.5

Sequence: AAGUAGCAAUAUUACGGACG
- self-splicing fitness (ln) (30 °C): -2.73 ± 0.18
- self-splicing fitness (ln) (37 °C): -1.74 ± 0.2

Sequence: CGCAAGCAAUAUUACGUCCU
- self-splicing fitness (ln) (30 °C): -1.2 ± 0.11
- self-splicing fitness (ln) (37 °C): -0.366 ± 0.12

Sequence: UGCAAGCAAUAUUACGUCCC
- self-splicing fitness (ln) (30 °C): -1.37 ± 0.28
- self-splicing fitness (ln) (37 °C): -0.65 ± 0.24

Sequence: GGCUAGCAAUAUUACGACUA
- self-splicing fitness (ln) (30 °C): -0.758 ± 0.091
- self-splicing fitness (ln) (37 °C): -0.454 ± 0.089

Sequence: GAACAGCAAUAUUACGGACA
- self-splicing fitness (ln) (30 °C): -1.3 ± 0.1
- self-splicing fitness (ln) (37 °C): -0.732 ± 0.09

Sequence: CCGGAGCAAUAUUACGGCAU
- self-splicing fitness (ln) (30 °C): -2.81 ± 0.22
- self-splicing fitness (ln) (37 °C): -1.55 ± 0.19

Sequence: GAUGAGCAAUAUUACGCGUA
- self-splicing fitness (ln) (30 °C): -1.96 ± 0.29
- self-splicing fitness (ln) (37 °C): -1.85 ± 0.33

Sequence: UCCCAGCAAUAUUACGACUC
- self-splicing fitness (ln) (30 °C): -3.89 ± 0.25
- self-splicing fitness (ln) (37 °C): -1.91 ± 0.24

Sequence: UUGAAGCAAUAUUACGAAGU
- self-splicing fitness (ln) (30 °C): -3.34 ± 0.19
- self-splicing fitness (ln) (37 °C): -1.69 ± 0.21

Sequence: CUCGAGCAAUAUUACGUAUU
- self-splicing fitness (ln) (30 °C): -3.51 ± 0.15
- self-splicing fitness (ln) (37 °C): -1.96 ± 0.14

Sequence: UCAAAGCAAUAUUACGUCAG
- self-splicing fitness (ln) (30 °C): -1.75 ± 0.086
- self-splicing fitness (ln) (37 °C): -0.944 ± 0.097

Sequence: GAACAGCAAUAUUACGCGUU
- self-splicing fitness (ln) (30 °C): -3.27 ± 0.12
- self-splicing fitness (ln) (37 °C): -2.69 ± 0.14

Sequence: ACAUAGCAAUAUUACGGCAC
- self-splicing fitness (ln) (30 °C): -1.56 ± 0.11
- self-splicing fitness (ln) (37 °C): -1.2 ± 0.15

Sequence: GACAAGCAAUAUUACGGAGC
- self-splicing fitness (ln) (30 °C): -2.2 ± 0.09
- self-splicing fitness (ln) (37 °C): -1.65 ± 0.13

Sequence: CCGUAGCAAUAUUACGGCUU
- self-splicing fitness (ln) (30 °C): -3.06 ± 0.35
- self-splicing fitness (ln) (37 °C): -3.06 ± 0.43

Sequence: GCUCAGCAAUAUUACGCUUU
- self-splicing fitness (ln) (30 °C): -0.857 ± 0.077
- self-splicing fitness (ln) (37 °C): -0.887 ± 0.083

Sequence: AGCCAGCAAUAUUACGAGGG
- self-splicing fitness (ln) (30 °C): -2.58 ± 0.15
- self-splicing fitness (ln) (37 °C): -2.38 ± 0.17

Sequence: UGGCAGCAAUAUUACGAGUU
- self-splicing fitness (ln) (30 °C): -4.06 ± 0.3
- self-splicing fitness (ln) (37 °C): -2.48 ± 0.24

Sequence: UGGAAGCAAUAUUACGCAUG
- self-splicing fitness (ln) (30 °C): -1.02 ± 0.096
- self-splicing fitness (ln) (37 °C): -0.486 ± 0.12

Sequence: ACCGAGCAAUAUUACGCUUU
- self-splicing fitness (ln) (30 °C): -3.06 ± 0.28
- self-splicing fitness (ln) (37 °C): -1.56 ± 0.15

Sequence: CUACAGCAAUAUUACGGCAU
- self-splicing fitness (ln) (30 °C): -3.6 ± 0.23
- self-splicing fitness (ln) (37 °C): -2.34 ± 0.23

Sequence: UAGCAGCAAUAUUACGUGAG
- self-splicing fitness (ln) (30 °C): -0.937 ± 0.035
- self-splicing fitness (ln) (37 °C): -0.228 ± 0.056

Sequence: GGACAGCAAUAUUACGUCGU
- self-splicing fitness (ln) (30 °C): -1.45 ± 0.071
- self-splicing fitness (ln) (37 °C): -0.405 ± 0.075

Sequence: AAUCAGCAAUAUUACGACUG
- self-splicing fitness (ln) (30 °C): -0.833 ± 0.097
- self-splicing fitness (ln) (37 °C): 0.27 ± 0.11

Sequence: CUCUAGCAAUAUUACGGUUA
- self-splicing fitness (ln) (37 °C): -3.24 ± 0.29

Sequence: GGCAAGCAAUAUUACGAUGG
- self-splicing fitness (ln) (30 °C): -2.61 ± 0.19
- self-splicing fitness (ln) (37 °C): -1.52 ± 0.16

Sequence: CUUUAGCAAUAUUACGUCUG
- self-splicing fitness (ln) (30 °C): -0.534 ± 0.094
- self-splicing fitness (ln) (37 °C): -0.218 ± 0.12

Sequence: AUAGAGCAAUAUUACGUAAU
- self-splicing fitness (ln) (30 °C): -0.582 ± 0.1
- self-splicing fitness (ln) (37 °C): 0.244 ± 0.12

Sequence: GUGUAGCAAUAUUACGCUUA
- self-splicing fitness (ln) (30 °C): -1.45 ± 0.29
- self-splicing fitness (ln) (37 °C): 0.408 ± 0.25

Sequence: UCCUAGCAAUAUUACGGAUG
- self-splicing fitness (ln) (30 °C): -4.25 ± 0.34
- self-splicing fitness (ln) (37 °C): -2.67 ± 0.2

Sequence: CAAUAGCAAUAUUACGCUCU
- self-splicing fitness (ln) (30 °C): -3.28 ± 0.24
- self-splicing fitness (ln) (37 °C): -1.88 ± 0.17

Sequence: CAGGAGCAAUAUUACGGUUC
- self-splicing fitness (ln) (30 °C): -2.71 ± 0.43
- self-splicing fitness (ln) (37 °C): -1.74 ± 0.28

Sequence: GACCAGCAAUAUUACGCCCU
- self-splicing fitness (ln) (30 °C): -0.482 ± 0.11
- self-splicing fitness (ln) (37 °C): -0.286 ± 0.12

Sequence: GGGUAGCAAUAUUACGACCU
- self-splicing fitness (ln) (30 °C): -2.3 ± 0.36

Sequence: AUGAAGCAAUAUUACGAGGA
- self-splicing fitness (ln) (30 °C): -1.44 ± 0.14
- self-splicing fitness (ln) (37 °C): -2.6 ± 0.2

Sequence: CCACAGCAAUAUUACGAUAG
- self-splicing fitness (ln) (30 °C): -1.17 ± 0.065
- self-splicing fitness (ln) (37 °C): 0.206 ± 0.084

Sequence: UGGCAGCAAUAUUACGCUGU
- self-splicing fitness (ln) (30 °C): -2.97 ± 0.15
- self-splicing fitness (ln) (37 °C): -2.18 ± 0.21

Sequence: ACAUAGCAAUAUUACGUUCU
- self-splicing fitness (ln) (30 °C): -1.19 ± 0.11
- self-splicing fitness (ln) (37 °C): -0.553 ± 0.12

Sequence: GGUUAGCAAUAUUACGAGUU
- self-splicing fitness (ln) (30 °C): -1.87 ± 0.15
- self-splicing fitness (ln) (37 °C): -0.221 ± 0.12

Sequence: GUGCAGCAAUAUUACGCUUG
- self-splicing fitness (ln) (30 °C): -3.09 ± 0.21
- self-splicing fitness (ln) (37 °C): -2.02 ± 0.27

Sequence: GUCAAGCAAUAUUACGGCUA
- self-splicing fitness (ln) (30 °C): -1.28 ± 0.073
- self-splicing fitness (ln) (37 °C): -0.658 ± 0.066

Sequence: UUCAAGCAAUAUUACGUACA
- self-splicing fitness (ln) (30 °C): -0.901 ± 0.11
- self-splicing fitness (ln) (37 °C): -0.478 ± 0.13

Sequence: GCGCAGCAAUAUUACGCCAA
- self-splicing fitness (ln) (37 °C): -1.42 ± 0.47

Sequence: GAGAAGCAAUAUUACGGAUG
- self-splicing fitness (ln) (30 °C): -2.5 ± 0.14
- self-splicing fitness (ln) (37 °C): -0.821 ± 0.13

Sequence: CUAUAGCAAUAUUACGCAGA
- self-splicing fitness (ln) (30 °C): -2.65 ± 0.16
- self-splicing fitness (ln) (37 °C): -1.2 ± 0.14

Sequence: AUGUAGCAAUAUUACGCUGU
- self-splicing fitness (ln) (30 °C): -2.92 ± 0.12
- self-splicing fitness (ln) (37 °C): -1.12 ± 0.11

Sequence: GUUUAGCAAUAUUACGGUUC
- self-splicing fitness (ln) (30 °C): -1.09 ± 0.12
- self-splicing fitness (ln) (37 °C): -0.823 ± 0.15

Sequence: AGGAAGCAAUAUUACGACCC
- self-splicing fitness (ln) (30 °C): -0.677 ± 0.23
- self-splicing fitness (ln) (37 °C): -1.73 ± 0.26

Sequence: UAUUAGCAAUAUUACGCCCG
- self-splicing fitness (ln) (30 °C): 0.243 ± 0.36
- self-splicing fitness (ln) (37 °C): 1.09 ± 0.36

Sequence: GUCGAGCAAUAUUACGUUGC
- self-splicing fitness (ln) (30 °C): -2.19 ± 0.2
- self-splicing fitness (ln) (37 °C): -2.25 ± 0.41

Sequence: GUUGAGCAAUAUUACGGCAC
- self-splicing fitness (ln) (30 °C): -0.787 ± 0.17
- self-splicing fitness (ln) (37 °C): -0.486 ± 0.2

Sequence: CUCAAGCAAUAUUACGGUUC
- self-splicing fitness (ln) (30 °C): -3.65 ± 0.17
- self-splicing fitness (ln) (37 °C): -2.74 ± 0.16

Sequence: CGUCAGCAAUAUUACGGGGU
- self-splicing fitness (ln) (30 °C): -3.29 ± 0.11
- self-splicing fitness (ln) (37 °C): -2.33 ± 0.14

Sequence: AUGAAGCAAUAUUACGCGAU
- self-splicing fitness (ln) (30 °C): -2.89 ± 0.21
- self-splicing fitness (ln) (37 °C): -1.59 ± 0.23

Sequence: ACAAAGCAAUAUUACGUAAA
- self-splicing fitness (ln) (30 °C): -2.08 ± 0.069
- self-splicing fitness (ln) (37 °C): -0.302 ± 0.092
